Experiments:
GST-FBXA-192 FL = target: T1, GST-FBXA-192 FL (Caenorhabditis elegans, UniProt Q9XUX2 1-401); experiment: EMSA; 50 mM Tris-HCl pH 7.5, 150 mM NaCl, 1 mM DTT, protease inhibitors, 2.5% glycerol, 77.3 nM DNA, 25 C 15 min; native 1.5% agarose gel in TBE at 4 C, SYBR Gold stain; conditions: protein: recombinant; tags: N-terminal GST; blunt
T1 sequence: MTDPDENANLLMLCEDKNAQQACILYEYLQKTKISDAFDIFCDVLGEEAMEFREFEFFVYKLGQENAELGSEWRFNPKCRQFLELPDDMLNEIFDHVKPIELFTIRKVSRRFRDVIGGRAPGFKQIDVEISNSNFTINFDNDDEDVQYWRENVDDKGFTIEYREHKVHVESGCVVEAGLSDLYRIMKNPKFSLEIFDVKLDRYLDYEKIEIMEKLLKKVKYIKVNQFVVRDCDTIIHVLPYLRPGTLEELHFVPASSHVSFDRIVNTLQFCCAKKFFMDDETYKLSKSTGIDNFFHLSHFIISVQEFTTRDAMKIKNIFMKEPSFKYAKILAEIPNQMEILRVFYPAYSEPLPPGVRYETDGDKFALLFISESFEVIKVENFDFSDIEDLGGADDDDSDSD

GST-FBXA-215 FL = target: T2, GST-FBXA-215 FL (Caenorhabditis elegans, UniProt A0A8S4Q9N7 1-401); experiment: as above; conditions: protein: recombinant; tags: N-terminal GST; blunt
T2 sequence: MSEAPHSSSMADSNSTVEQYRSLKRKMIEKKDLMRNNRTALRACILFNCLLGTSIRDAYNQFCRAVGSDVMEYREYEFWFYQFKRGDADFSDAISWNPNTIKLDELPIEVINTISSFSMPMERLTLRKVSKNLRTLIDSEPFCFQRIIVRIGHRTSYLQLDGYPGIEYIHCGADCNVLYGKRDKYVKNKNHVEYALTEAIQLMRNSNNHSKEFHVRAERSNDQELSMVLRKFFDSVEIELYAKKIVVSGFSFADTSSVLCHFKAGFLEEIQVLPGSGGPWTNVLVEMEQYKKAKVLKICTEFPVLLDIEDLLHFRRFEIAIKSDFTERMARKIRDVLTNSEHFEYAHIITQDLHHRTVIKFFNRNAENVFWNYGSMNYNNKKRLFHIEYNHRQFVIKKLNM

B1: Mos1 right TIR (IRR100) (dsDNA)
DNA 1: TTTCTTTTTCCACAAAATTTAACGTGTTTTTTGATTTAAAAAAAACGACATTTCATACTTGTACACCTGA
DNA 2: TCAGGTGTACAAGTATGAAATGTCGTTTTTTTTAAATCAAAAAACACGTTAAATTTTGTGGAAAAAGAAA
binding result (GST-FBXA-192 FL): no binding | binding result (GST-FBXA-215 FL): no binding

— publication PMC12062965, “Transposable Elements Drive Regulatory and Functional Innovation of F-box Genes”
